In data set [1] the target is internally quenched peptide probe with CM PWGLRS (SEQ ID NO: 181).
Data set [2] deals with internally quenched peptide probe with CM RSPWGL (SEQ ID NO: 182).
Data set [3] concerns the target internally quenched peptide probe with CM APMGLKH (SEQ ID NO: 7).
For data set [4], the target named is internally quenched peptide probe with CM PMGLK (SEQ ID NO: 64).
The target of data set [5] is internally quenched peptide probe with CM PMGLKS (SEQ ID NO: 5).
Data set [6] deals with internally quenched peptide probe with CM 7051 (PMGL, SEQ ID NO: 106).
For data set [7], the target named is internally quenched peptide probe with CM 7047 (PYGL, SEQ ID NO: 103).
The target of data set [8] is internally quenched peptide probe with CM 7052 (PLGL, SEQ ID NO: 107).
Data set [9] deals with internally quenched peptide probe with CM 7049 (PFGL, SEQ ID NO: 104).
In data set [10] the target is internally quenched peptide probe with CM 7056 (PEGL, SEQ ID NO: 11).
Data set [11] addresses internally quenched peptide probe with CM 7055 (PHGL, SEQ ID NO: 10).
In data set [12] the target is internally quenched peptide probe with CM 7050 (PRGL, SEQ ID NO: 105).
The target in data set [13] is internally quenched peptide probe with CM 7054 (PKGL, SEQ ID NO: 108).
Data set [14] deals with internally quenched peptide probe with CM 7041 (PWGL, SEQ ID NO: 100).
For data set [15], the target named is internally quenched peptide probe with CM 7053 (PQGL, SEQ ID NO: 9).

B1: human recombinant MT-SP1 (R&D Systems, catalog No: 3946-SEB) (protein)
chain: VVGGTDADEGEWPWQVSLHALGQGHICGASLISPNWLVSAAHCYIDDRGFRYSDPTQWTAFLGLHDQSQRSAPGVQERRLKRIISHPFFNDFTFDYDIALLELEKPAEYSSMVRPICLPDASHVFPAGKAIWVTGWGHTQYGGTGALILQKGEIRVINQTTCENLLPQQITPRMMCVGFLSGGVDSCQGDSGGPLSSVEADGRIFQAGVVSWGDGCAQRNKPGVYTRLPLFRDWIKENTGV
Take B1: the Probe Cleavage (kcat/KM) in data set [1] turned out to be 31000 M⁻¹ s⁻¹; in [2], 48000 M⁻¹ s⁻¹; in [3] it was 77000 M⁻¹ s⁻¹; in data set [4], 1600 M⁻¹ s⁻¹; in [5], 320000 M⁻¹ s⁻¹. Besides, the Probe Cleavage (pM/s) in data set [1] was 1230 pM/s; in data set [2], 2390 pM/s; in data set [3], 3330 pM/s; in data set [4], 46.1 pM/s; in [5], 14100 pM/s.

B2: human recombinant MMP2 (R&D Systems, catalog No: 902-MP) (protein)
chain: YNFFPRKPKWDKNQITYRIIGYTPDLDPETVDDAFARAFQVWSDVTPLRFSRIHDGEADIMINFGRWEHGDGYPFDGKDGLLAHAFAPGTGVGGDSHFDDDELWTLGEGQVVRVKYGNADGEYCKFPFLFNGKEYNSCTDTGRSDGFLWCSTTYNFEKDGKYGFCPHEALFTMGGNAEGQPCKFPFRFQGTSYDSCTTEGRTDGYRWCGTTEDYDRDKKYGFCPETAMSTVGGNSEGAPCVFPFTFLGNKYESCTSAGRSDGKMWCATTANYDDDRKWGFCPDQGYSLFLVAAHEFGHAMGLEHSQDPGALMAPIYTYTKNFRLSQDDIKGIQELYGASPDIDLGTGPTPTLGPVTPEICKQDIVFDGIAQIRGEIFFFKDRFIWRTVTPRDKPMGPLLVATFWPELPEKIDAVYEAPQEEKAVFFAGNEYWIYSASTLERGYPKPLTSLGLPPDVQRVDAAFNWSKNKKTYIFAGDKFWRYNEVKKKMDPGFPKLIADAWNAIPDNLDAVVDLQGGGHSYFFKGAYYLKLENQSLKSVKFGSIKSDWLGC
On to B2, for which the “stated: cleaved (kcat/Km, M-1s-1, bar on a log axis)” value in [6] is “PMGL, MMP2 bar ends between 1x10^4 and 1x10^5”; in data set [7] it was “PYGL, MMP2 bar ends between 1x10^3 and 1x10^4”; in data set [8], “PLGL, MMP2 bar ends between 1x10^4 and 1x10^5”; in data set [9], “PFGL, MMP2 bar ends between 1x10^3 and 1x10^4”; in data set [10] it was “PEGL, MMP2 bar ends between 1x10^3 and 1x10^4”; in [11], “PHGL, MMP2 bar ends just above the 1x10^4 tick”. For the same protein, the “stated: cleaved (kcat/Km, M-1s-1, bar on a log axis)” value was “PRGL, MMP2 bar ends between 1x10^4 and 1x10^5; the highest MMP2 bar of the ten peptide probes” in data set [12]; “PKGL, MMP2 bar ends between 1x10^4 and 1x10^5” in [13]; “PWGL, MMP2 bar ends between 1x10^3 and 1x10^4” in data set [14]; “PQGL, MMP2 bar ends between 1x10^4 and 1x10^5” in [15]. The Probe Cleavage (kcat/KM) worked out at 140000 M⁻¹ s⁻¹ in data set [1]; 260000 M⁻¹ s⁻¹ in [2]; 2.7e+06 M⁻¹ s⁻¹ in [3]; 180000 M⁻¹ s⁻¹ in [4]; 8.5e+06 M⁻¹ s⁻¹ in data set [5]. Also, the Probe Cleavage (pM/s) in [1] was found to be 3800 pM/s; in data set [2], 11700 pM/s; in [3], 81700 pM/s; in [4], 4690 pM/s; in [5], 119000 pM/s. The “kcat/KM (M^-1 s^-1)” value in [7], in data set [9] and in [10] was “greater than 5×10^2 M^-1 s^-1” each time.

The values above are taken from patent US20260042849.
